# From PMC11947617, “Fine‐tuned interactions between globular and disordered regions of single‐stranded DNA binding (SSB) protein are required for dynamic condensation under physiological conditions” (Protein Science : A Publication of the Protein Society, 2025)
# No end group written: not given here. fluorescein = fluorescein label
# B1: fluorescein-labeled SSB C-terminal peptide (peptide)
# peptide: fluorescein-MDFDDDIPF
# notes: also called flu-CTP; labeled C-terminal peptide
# Biological target: T1, Escherichia coli single-stranded DNA binding (SSB) protein, wild type (E. coli, UniProt P0AGE0 1-178)
# T1 construct: E. coli SSB, wild type; OB domain aa 1-112, IDL aa 113-177 with the CTP aa 169-177; homotetramer of 19-kDa subunits; Construct as described in Harami et al. (2020); also called SSB-WT; WT; source: E. coli ER2566, purified (Polymin P, ammonium sulfate, heparin, MonoQ)
# Assay: fluorescence polarisation; 15 nM flu-CTP titrated with SSB or SSBdC; standard LLPS buffer (20 mM Tris-OAc pH 7.5, 50 mM KGlu, 5 mM Mg(OAc)2), no PEG; 25°C; quadratic binding equation
# Settings: both partners purified
# T1 sequence (P0AGE0 whole entry, the tested form may be a part): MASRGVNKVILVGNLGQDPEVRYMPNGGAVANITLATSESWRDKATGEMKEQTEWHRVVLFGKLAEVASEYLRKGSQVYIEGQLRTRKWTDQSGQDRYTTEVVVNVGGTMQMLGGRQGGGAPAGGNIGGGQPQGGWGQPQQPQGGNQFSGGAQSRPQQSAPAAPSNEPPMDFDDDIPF
binder,measurement,value
B1,Kd,> 100 µM
